In patent US20120172295A1 one finds % relative activity and EC50 data, which are given here for five molecules.

The EC50 is the concentration that produces a half-maximal response.

To fix the notation:
T1: GIP receptor, P48546
T1 chain: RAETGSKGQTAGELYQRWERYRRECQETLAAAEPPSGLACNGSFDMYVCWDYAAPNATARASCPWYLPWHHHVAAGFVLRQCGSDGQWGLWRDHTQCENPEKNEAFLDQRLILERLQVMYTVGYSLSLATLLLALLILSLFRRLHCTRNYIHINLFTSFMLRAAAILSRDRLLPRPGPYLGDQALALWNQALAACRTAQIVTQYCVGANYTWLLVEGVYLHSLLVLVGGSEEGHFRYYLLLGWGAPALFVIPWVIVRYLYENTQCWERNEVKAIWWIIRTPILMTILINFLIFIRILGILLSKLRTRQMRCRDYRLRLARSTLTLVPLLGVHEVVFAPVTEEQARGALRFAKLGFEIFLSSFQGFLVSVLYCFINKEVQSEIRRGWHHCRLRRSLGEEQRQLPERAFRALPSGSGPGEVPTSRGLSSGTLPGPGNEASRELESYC

T2: GLP-1 receptor, P43220
T2 chain: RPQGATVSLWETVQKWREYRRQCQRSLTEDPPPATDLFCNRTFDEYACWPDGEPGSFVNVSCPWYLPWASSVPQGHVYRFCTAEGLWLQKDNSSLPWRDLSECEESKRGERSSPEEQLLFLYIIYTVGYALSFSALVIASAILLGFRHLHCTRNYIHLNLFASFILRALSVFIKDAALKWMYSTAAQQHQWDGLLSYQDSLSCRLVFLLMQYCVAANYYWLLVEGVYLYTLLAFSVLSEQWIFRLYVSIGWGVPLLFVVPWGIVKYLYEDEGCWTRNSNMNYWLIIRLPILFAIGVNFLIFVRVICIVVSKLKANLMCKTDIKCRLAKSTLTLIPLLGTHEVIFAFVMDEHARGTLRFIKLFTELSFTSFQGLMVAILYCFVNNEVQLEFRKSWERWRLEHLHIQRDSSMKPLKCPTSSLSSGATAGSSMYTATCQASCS

B1: mt-363 (peptide)
peptide: H[Aib]QGTFTSDYSKYLDEQAAKEFIAWLMNGGPSSGAPPPSK-NH2
modifications: N-terminus assumed
SMILES: CC[C@H](C)[C@H](NC(=O)[C@H](Cc1ccccc1)NC(=O)[C@H](CCC(=O)O)NC(=O)[C@H](CCCCN)NC(=O)[C@H](C)NC(=O)[C@H](C)NC(=O)[C@H](CCC(N)=O)NC(=O)[C@H](CCC(=O)O)NC(=O)[C@H](CC(=O)O)NC(=O)[C@H](CC(C)C)NC(=O)[C@H](Cc1ccc(O)cc1)NC(=O)[C@H](CCCCN)NC(=O)[C@H](CO)NC(=O)[C@H](Cc1ccc(O)cc1)NC(=O)[C@H](CC(=O)O)NC(=O)[C@H](CO)NC(=O)[C@@H](NC(=O)[C@H](Cc1ccccc1)NC(=O)[C@@H](NC(=O)CNC(=O)[C@H](CCC(N)=O)NC(=O)C(C)(C)NC(=O)[C@@H](N)Cc1c[nH]cn1)[C@@H](C)O)[C@@H](C)O)C(=O)N[C@@H](C)C(=O)N[C@@H](Cc1c[nH]c2ccccc12)C(=O)N[C@@H](CC(C)C)C(=O)N[C@@H](CCSC)C(=O)N[C@@H](CC(N)=O)C(=O)NCC(=O)NCC(=O)N1CCC[C@H]1C(=O)N[C@@H](CO)C(=O)N[C@@H](CO)C(=O)NCC(=O)N[C@@H](C)C(=O)N1CCC[C@H]1C(=O)N1CCC[C@H]1C(=O)N1CCC[C@H]1C(=O)N[C@@H](CO)C(=O)N[C@@H](CCCCN)C(N)=O
B2: mt-361 (peptide)
peptide: H[Aib]QGTFTSDYSIYLD[Aib]QAAKEFVNWLMNGGPSSGAPPPSK-NH2
modifications: N-terminus assumed
SMILES: CC[C@H](C)[C@H](NC(=O)[C@H](CO)NC(=O)[C@H](Cc1ccc(O)cc1)NC(=O)[C@H](CC(=O)O)NC(=O)[C@H](CO)NC(=O)[C@@H](NC(=O)[C@H](Cc1ccccc1)NC(=O)[C@@H](NC(=O)CNC(=O)[C@H](CCC(N)=O)NC(=O)C(C)(C)NC(=O)[C@@H](N)Cc1c[nH]cn1)[C@@H](C)O)[C@@H](C)O)C(=O)N[C@@H](Cc1ccc(O)cc1)C(=O)N[C@@H](CC(C)C)C(=O)N[C@@H](CC(=O)O)C(=O)NC(C)(C)C(=O)N[C@@H](CCC(N)=O)C(=O)N[C@@H](C)C(=O)N[C@@H](C)C(=O)N[C@@H](CCCCN)C(=O)N[C@@H](CCC(=O)O)C(=O)N[C@@H](Cc1ccccc1)C(=O)N[C@H](C(=O)N[C@@H](CC(N)=O)C(=O)N[C@@H](Cc1c[nH]c2ccccc12)C(=O)N[C@@H](CC(C)C)C(=O)N[C@@H](CCSC)C(=O)N[C@@H](CC(N)=O)C(=O)NCC(=O)NCC(=O)N1CCC[C@H]1C(=O)N[C@@H](CO)C(=O)N[C@@H](CO)C(=O)NCC(=O)N[C@@H](C)C(=O)N1CCC[C@H]1C(=O)N1CCC[C@H]1C(=O)N1CCC[C@H]1C(=O)N[C@@H](CO)C(=O)N[C@@H](CCCCN)C(N)=O)C(C)C
B3: mt-346 (peptide)
peptide: H[Aib]QGTFTSDYSKYLDEQAAKEFICWLMNGGPSSGAPPPSK-NH2
modifications: N-terminus assumed
SMILES: CC[C@H](C)[C@H](NC(=O)[C@H](Cc1ccccc1)NC(=O)[C@H](CCC(=O)O)NC(=O)[C@H](CCCCN)NC(=O)[C@H](C)NC(=O)[C@H](C)NC(=O)[C@H](CCC(N)=O)NC(=O)[C@H](CCC(=O)O)NC(=O)[C@H](CC(=O)O)NC(=O)[C@H](CC(C)C)NC(=O)[C@H](Cc1ccc(O)cc1)NC(=O)[C@H](CCCCN)NC(=O)[C@H](CO)NC(=O)[C@H](Cc1ccc(O)cc1)NC(=O)[C@H](CC(=O)O)NC(=O)[C@H](CO)NC(=O)[C@@H](NC(=O)[C@H](Cc1ccccc1)NC(=O)[C@@H](NC(=O)CNC(=O)[C@H](CCC(N)=O)NC(=O)C(C)(C)NC(=O)[C@@H](N)Cc1c[nH]cn1)[C@@H](C)O)[C@@H](C)O)C(=O)N[C@@H](CS)C(=O)N[C@@H](Cc1c[nH]c2ccccc12)C(=O)N[C@@H](CC(C)C)C(=O)N[C@@H](CCSC)C(=O)N[C@@H](CC(N)=O)C(=O)NCC(=O)NCC(=O)N1CCC[C@H]1C(=O)N[C@@H](CO)C(=O)N[C@@H](CO)C(=O)NCC(=O)N[C@@H](C)C(=O)N1CCC[C@H]1C(=O)N1CCC[C@H]1C(=O)N1CCC[C@H]1C(=O)N[C@@H](CO)C(=O)N[C@@H](CCCCN)C(N)=O
B4: mt-362 (peptide)
peptide: H[Aib]QGTFTSDYSIYLD[Aib]QAAKEFVNWLMNGGPSSGAPPPSK(Palmitoyl)-NH2
modifications: N-terminus assumed
SMILES: CCCCCCCCCCCCCCCC(=O)NCCCC[C@H](NC(=O)[C@H](CO)NC(=O)[C@@H]1CCCN1C(=O)[C@@H]1CCCN1C(=O)[C@@H]1CCCN1C(=O)[C@H](C)NC(=O)CNC(=O)[C@H](CO)NC(=O)[C@H](CO)NC(=O)[C@@H]1CCCN1C(=O)CNC(=O)CNC(=O)[C@H](CC(N)=O)NC(=O)[C@H](CCSC)NC(=O)[C@H](CC(C)C)NC(=O)[C@H](Cc1c[nH]c2ccccc12)NC(=O)[C@H](CC(N)=O)NC(=O)[C@@H](NC(=O)[C@H](Cc1ccccc1)NC(=O)[C@H](CCC(=O)O)NC(=O)[C@H](CCCCN)NC(=O)[C@H](C)NC(=O)[C@H](C)NC(=O)[C@H](CCC(N)=O)NC(=O)C(C)(C)NC(=O)[C@H](CC(=O)O)NC(=O)[C@H](CC(C)C)NC(=O)[C@H](Cc1ccc(O)cc1)NC(=O)[C@@H](NC(=O)[C@H](CO)NC(=O)[C@H](Cc1ccc(O)cc1)NC(=O)[C@H](CC(=O)O)NC(=O)[C@H](CO)NC(=O)[C@@H](NC(=O)[C@H](Cc1ccccc1)NC(=O)[C@@H](NC(=O)CNC(=O)[C@H](CCC(N)=O)NC(=O)C(C)(C)NC(=O)[C@@H](N)Cc1c[nH]cn1)[C@@H](C)O)[C@@H](C)O)[C@@H](C)CC)C(C)C)C(N)=O

Non-standard residues stand in square brackets, D forms with d. No end group written: not given here. *: point of attachment. Palmitoyl = CCCCCCCCCCCCCCCC(=O)*; Myristoyl = CCCCCCCCCCCCCC(=O)*; Aib = CC(C)(N)C(=O)O

One assay deals with T1, GIP receptor, P48546. The assay can be described thus: cell-based or functional assay.
For the molecule H[Aib]QGTFTSDYSKYLDEQAAKEFIC(PEG 40 kDa)WLMNGGPSSGAPPPSK(Myristoyl)-NH2 [mt-349], the % relative activity amounted to 0.18% and the EC50 turned out to be 1990 pM.

On to B1, for which the % relative activity was determined as 0.73% and the EC50 came out at 425 pM.

On to B2, for which the % relative activity came to 0.29% and the EC50 was found to be 1050 pM.

For B3, the % relative activity worked out at 0.34% and the EC50 was found to be 796 pM.

B4: the % relative activity came out at 3.95% and the 50% effective concentration (EC50) was 78.2 pM.

For a further assay, the target named is T2, GLP-1 receptor, P43220. The assay can be described thus: cell-based or functional assay.
H[Aib]QGTFTSDYSKYLDEQAAKEFIC(PEG 40 kDa)WLMNGGPSSGAPPPSK(Myristoyl)-NH2 [mt-349]: the % relative activity amounted to 286% and the EC50 amounted to 2.2 pM.

Take B1: the % relative activity stood at 672% and the EC50 is 3.7 pM.

On to B2, for which the % relative activity came to 226% and the EC50 stood at 10.9 pM.

Turning to B3, the % relative activity was determined as 367% and the EC50 was 1.5 pM.

In the case of B4, the % relative activity was determined as 241% and the EC50 was 102 pM.

In a further assay the target is glucagon receptor, P47871. The assay can be described thus: cell-based or functional assay.
Chain of glucagon receptor, P47871 (P47871 26-477 limits assumed): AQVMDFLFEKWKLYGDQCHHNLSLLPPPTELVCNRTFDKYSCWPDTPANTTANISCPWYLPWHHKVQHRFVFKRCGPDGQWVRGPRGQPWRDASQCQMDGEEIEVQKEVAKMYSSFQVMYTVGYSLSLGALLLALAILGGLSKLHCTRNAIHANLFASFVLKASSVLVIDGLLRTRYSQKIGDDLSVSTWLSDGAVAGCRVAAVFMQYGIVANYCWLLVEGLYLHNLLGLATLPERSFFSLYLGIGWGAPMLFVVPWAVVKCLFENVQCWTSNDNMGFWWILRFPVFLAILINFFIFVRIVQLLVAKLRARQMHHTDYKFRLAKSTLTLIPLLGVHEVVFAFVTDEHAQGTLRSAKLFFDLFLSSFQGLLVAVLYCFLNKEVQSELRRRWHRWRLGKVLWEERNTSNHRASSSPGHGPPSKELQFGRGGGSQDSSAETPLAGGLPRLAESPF
In the case of H[Aib]QGTFTSDYSKYLDEQAAKEFIC(PEG 40 kDa)WLMNGGPSSGAPPPSK(Myristoyl)-NH2 [mt-349], the % relative activity was 3.82% and the EC50 amounted to 549 pM.

As to B1, the % relative activity was found to be 7.76% and the EC50 worked out at 823 pM.

As to B2, the % relative activity amounted to 3.61% and the EC50 was determined as 1770 pM.

Turning to B3, the % relative activity was found to be 3.7% and the EC50 is 954 pM.

With B4, the % relative activity amounted to 83.2% and the EC50 was 76.8 pM.
